# Results from publication PMC5675868.
# Key:
# [1] = molecular target: T1, Aux2LS20-His6 (p57) (Bacillus subtilis plasmid pLS20cat) (UniProt E9RJ22); assay: EMSA; conditions: EMSA: 20 mM Tris-HCl pH 8, 1 mM EDTA, 5 mM MgCl2, 0.5 mM DTT, 100 mM KCl, 10% glycerol, 0.05 mg/ml BSA; 20 min 30°C then 10 min on ice; 2% agarose, 0.5x TBE …
# T1 sequence: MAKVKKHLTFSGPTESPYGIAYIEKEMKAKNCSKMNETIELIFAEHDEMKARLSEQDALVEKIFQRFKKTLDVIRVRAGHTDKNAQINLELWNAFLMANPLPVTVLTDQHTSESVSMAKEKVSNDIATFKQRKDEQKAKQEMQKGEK
# [2] = system: T2, Aux1LS20-His6 (p56) (Bacillus subtilis plasmid pLS20cat), ORF:1a040432; assay: EMSA; conditions: EMSA: 20 mM Tris-HCl pH 8, 1 mM EDTA, 5 mM MgCl2, 0.5 mM DTT, 100 mM KCl, 10% glycerol, 0.05 mg/ml BSA; 20 min 30°C then 10 min on ice; 2% agarose, 0.5x TBE …
# T2 sequence: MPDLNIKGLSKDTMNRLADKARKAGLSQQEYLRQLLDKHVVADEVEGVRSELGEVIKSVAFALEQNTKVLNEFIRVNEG
# [3] = molecular target: Aux1_(LS20) with a C-terminal His(6) tag (Bacillus subtilis (plasmid pLS20cat)); assay: AUC; sedimentation equilibrium of the purified protein alone at 12 uM, best fit to a single species model; conditions as in Ramachandran et al., 2017
# [4] = molecular target: Aux1_(LS20) with a C-terminal His(6) tag (Bacillus subtilis (plasmid pLS20cat)); assay: AUC + other: dynamic light scattering; sedimentation velocity of the purified protein alone at 12 uM; diffusion coefficient from DLS combined with the S-value in the Svedberg equation; conditions as in Ramachandran et al., 2017
# [5] = molecular target: Aux2_(LS20) with a C-terminal His(6) tag (Bacillus subtilis (plasmid pLS20cat)); assay: AUC; sedimentation equilibrium of the purified protein alone at 12 uM, best fit to a single species model; conditions as in Ramachandran et al., 2017
# [6] = molecular target: Aux2_(LS20) with a C-terminal His(6) tag (Bacillus subtilis (plasmid pLS20cat)); assay: AUC + other: dynamic light scattering; sedimentation velocity of the purified protein alone at 12 uM; diffusion coefficient from DLS combined with the S-value in the Svedberg equation; conditions as in Ramachandran et al., 2017
substance,measurement,setting,value
AAATCACCTAAATAATGGTTGAACATAAATGTTTTTTTTATGTGCATTCAGCAATAAATCTGGTACCACGAAAAAACAAACCGCACTGCGGTTTCACCATGCAAATGGTGCCAGTTTCCCCTTATGCTCTTTCCTTTTCCACCCCCTCCTTCCTTCGGAATCGGGGGCCGGCTTTTTGCTGCCGCAAAAAGCCTTGGAAA (double strand) [F27],binding,[1],binds more weakly
same,binding,[2],binds
ACGAGCAAAGAAATGCTAGGTGAACTTGAAAAACGGAATGAATTATTGAAGAAAAGAAAGAGCAATCTCGTCATCGAAGACTAAATTTCTGTATGGAAAACAGTTATTTTTCGTGTGCATAAAATAAAGATTTATGTGCATTTAGTTCTAAATCACCTAAATAATGGTTGAACATAAATGTTTTTTTTATGTGCATTCAGC (double strand) [F21],binding,[1],binds
ATGGTGAAACCGCAGTGCGGTTTGTTTTTTCGTGGTACCAGATTTATTGCTGAATGCACATAAAAAAAACATTTATGTTCAACCATTATTTAGGTGATTTAGAACTAAATGCACATAAATCTTTATTTTATGCACACGAAAAATAACTGTTTTCCATACAGAAATTTAGTCTTCGATGACGAGATTGCTCTTTCTTTTCT (double strand) [F23],binding,[1],binds
same,binding,[2],binds
Aux1_(LS20) with a C-terminal His(6) tag (natural protein),stoichiometry N,[3],4
same,stoichiometry N,[4],4
Aux2_(LS20) with a C-terminal His(6) tag (natural protein),stoichiometry N,[5],6
same,stoichiometry N,[6],6
CAGTTATTTTTCGTGTGCATAAAATAAAGATTTATGTGCATTTAGTTCTAAATCACCTAAATAATGGTTGAACATAAATGTTTTTTTTATGTGCATTCAGCAATAAATCTGGTACCACGAAAAAACAAACCGCACTGCGGTTTCACCATGCAAATGGTGCCAGTTTCCCCTTATGCTCTTTCCTTTTCCACCCCCTCCTTC (double strand) [F25],binding,[1],binds
same,binding,[2],binds
CATCGATTTCTGCACATTACTTTGCAACGATCTGTTCAAATAAGTGTTTCTTTTTCCAAGGCTTTTTGCGGCAGCAAAAAGCCGGCCCCCGATTCCGAAGGAAGGAGGGGGTGGAAAAGGAAAGAGCATAAGGGGAAACTGGCACCATTTGCATGGTGAAACCGCAGTGCGGTTTGTTTTTTCGTGGTACCAGATTTATTG (double strand) [F29],binding,[1],no binding
same,binding,[2],binds
CGAAGACTAAATTTCTGTATGGAAAACAGTTATTTTTCGTGTGCATAAAATAAAGATTTATGTGCATTTAGTTCTAAATCACCTAAATAATGGTTGAACATAAATGTTTTTTTTATGTGCATTCAGCAATAAATCTGGTACCACGAAAAAACAAACCGCACTGCGGTTTCACCATGCAAATGGTGCCAGTTTCCCCTTAT (double strand) [F24],binding,[1],binds
same,binding,[2],binds
CGGCATTTGTTAACGCTCCTTTTCATCGATTTCTGCACATTACTTTGCAACGATCTGTTCAAATAAGTGTTTCTTTTTCCAAGGCTTTTTGCGGCAGCAAAAAGCCGGCCCCCGATTCCGAAGGAAGGAGGGGGTGGAAAAGGAAAGAGCATAAGGGGAAACTGGCACCATTTGCATGGTGAAACCGCAGTGCGGTTTGT (double strand) [F30],binding,[1],no binding
GCAAATGGTGCCAGTTTCCCCTTATGCTCTTTCCTTTTCCACCCCCTCCTTCCTTCGGAATCGGGGGCCGGCTTTTTGCTGCCGCAAAAAGCCTTGGAAAAAGAAACACTTATTTGAACAGATCGTTGCAAAGTAATGTGCAGAAATCGATGAAAAGGAGCGTTAACAAATGCCGGATCTCAACATCAAAGGTCTTTCAA (double strand) [F31],binding,[1],no binding
GCTCTTTCCTTTTCCACCCCCTCCTTCCTTCGGAATCGGGGGCCGGCTTTTTGCTGCCGCAAAAAGCCTTGGAAAAAGAAACACTTATTTGAACAGATCGTTGCAAAGTAATGTGCAGAAATCGATGAAAAGGAGCGTTAACAAATGCCGGATCTCAACATCAAAGGTCTTTCAAAAGATACAATGAATAGGCTTGCGGA (double strand) [F32],binding,[1],no binding
TAAAGATTTATGTGCATTTAGTTCTAAATCACCTAAATAATGGTTGAACATAAATGTTTTTTTTATGTGCATTCAGCAATAAATCTGGTACCACGAAAAAACAAACCGCACTGCGGTTTCACCATGCAAATGGTGCCAGTTTCCCCTTATGCTCTTTCCTTTTCCACCCCCTCCTTCCTTCGGAATCGGGGGCCGGCTTT (double strand) [F26],binding,[1],binds more weakly
same,binding,[2],binds
TAAATGTTTTTTTTATGTGCATTCAGCAATAAATCTGGTACCACGAAAAAACAAACCGCACTGCGGTTTCACCATGCAAATGGTGCCAGTTTCCCCTTATGCTCTTTCCTTTTCCACCCCCTCCTTCCTTCGGAATCGGGGGCCGGCTTTTTGCTGCCGCAAAAAGCCTTGGAAAAAGAAACACTTATTTGAACAGATCG (double strand) [F28],binding,[1],binds more weakly
same,binding,[2],binds
TGAGAAAGTCCTGCCTTCCTCGCTTTATCCGCAAGCCTATTCATTGTATCTTTTGAAAGACCTTTGATGTTGAGATCCGGCATTTGTTAACGCTCCTTTTCATCGATTTCTGCACATTACTTTGCAACGATCTGTTCAAATAAGTGTTTCTTTTTCCAAGGCTTTTTGCGGCAGCAAAAAGCCGGCCCCCGATTCCGAAGG (double strand) [F33],binding,[1],no binding
TTTTTCGTGGTACCAGATTTATTGCTGAATGCACATAAAAAAAACATTTATGTTCAACCATTATTTAGGTGATTTAGAACTAAATGCACATAAATCTTTATTTTATGCACACGAAAAATAACTGTTTTCCATACAGAAATTTAGTCTTCGATGACGAGATTGCTCTTTCTTTTCTTCAATAATTCATTCCGTTTTTCAAG (double strand) [F22],binding,[1],binds
same,binding,[2],binds
